{"source": "patent US7732151B2", "about": "“Use of IRS-polypeptides for identifying of pharmaceutically active compounds” (Sanofi-Aventis Deutschland GmbH, priority 2003, dated 2010)", "key": {"[1]": {"target": "T1, rat liver insulin receptor (WGA-IR) (Rattus norvegicus, UniProt P15127)", "T1 construct": "tissue Sigma (named as alternative source) 70543; host or cells: rat liver", "T1 sequence (P15127 27-759 limits assumed)": "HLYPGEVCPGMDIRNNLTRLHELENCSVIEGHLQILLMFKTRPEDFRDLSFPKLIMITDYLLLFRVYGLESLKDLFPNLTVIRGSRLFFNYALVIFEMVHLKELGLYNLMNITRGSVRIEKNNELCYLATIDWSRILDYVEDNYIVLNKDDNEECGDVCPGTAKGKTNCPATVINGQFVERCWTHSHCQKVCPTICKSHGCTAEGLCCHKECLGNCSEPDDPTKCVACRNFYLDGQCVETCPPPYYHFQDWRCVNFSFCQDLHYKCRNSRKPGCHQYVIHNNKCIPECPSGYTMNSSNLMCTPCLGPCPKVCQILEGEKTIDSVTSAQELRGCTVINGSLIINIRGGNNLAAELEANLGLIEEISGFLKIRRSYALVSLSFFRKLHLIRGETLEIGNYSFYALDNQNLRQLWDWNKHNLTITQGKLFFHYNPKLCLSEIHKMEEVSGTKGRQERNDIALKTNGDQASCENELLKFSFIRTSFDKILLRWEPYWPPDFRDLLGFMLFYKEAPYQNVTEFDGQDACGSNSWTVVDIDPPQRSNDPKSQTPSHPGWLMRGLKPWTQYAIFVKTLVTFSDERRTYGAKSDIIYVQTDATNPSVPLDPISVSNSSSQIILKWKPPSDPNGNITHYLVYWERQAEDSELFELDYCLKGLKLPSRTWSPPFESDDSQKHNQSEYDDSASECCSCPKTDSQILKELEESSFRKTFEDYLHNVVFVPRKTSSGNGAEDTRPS", "T1 sequence (P15127 764-1383 partner limits assumed)": "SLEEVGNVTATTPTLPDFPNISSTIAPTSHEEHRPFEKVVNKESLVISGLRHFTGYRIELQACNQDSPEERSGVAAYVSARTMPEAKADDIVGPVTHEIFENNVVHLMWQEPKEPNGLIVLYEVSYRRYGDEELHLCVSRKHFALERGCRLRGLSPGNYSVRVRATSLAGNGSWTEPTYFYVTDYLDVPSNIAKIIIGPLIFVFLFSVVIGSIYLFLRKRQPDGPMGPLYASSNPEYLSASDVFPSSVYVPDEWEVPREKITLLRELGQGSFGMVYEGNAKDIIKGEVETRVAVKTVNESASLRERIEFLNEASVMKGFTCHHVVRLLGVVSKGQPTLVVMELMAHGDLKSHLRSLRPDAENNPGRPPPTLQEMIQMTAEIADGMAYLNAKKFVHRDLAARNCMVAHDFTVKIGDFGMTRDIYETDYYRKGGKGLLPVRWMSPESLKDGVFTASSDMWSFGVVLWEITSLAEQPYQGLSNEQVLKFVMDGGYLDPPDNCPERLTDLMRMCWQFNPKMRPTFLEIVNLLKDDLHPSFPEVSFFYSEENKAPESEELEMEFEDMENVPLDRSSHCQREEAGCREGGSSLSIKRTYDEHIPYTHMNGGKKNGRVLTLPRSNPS", "assay": "ALPHAScreen: phosphorylation of biotinylated IRS-1 fragment by wheat germ lectin affinity-purified rat liver insulin receptor", "assay_type": "biochemical", "conditions": "85 nM biotinylated IRS fragment, 50 μM ATP, 30° C. for 30 minutes, p-Tyr antibody detection, FIG. 4", "from_the_text": "The measurement of the kinase activity using ALPHAScreen™ from Perkin-Elmer Life Sciences, which is particularly expedient for the purposes of the present invention, takes place for example by the kinase to be investigated phosphorylating a biotinylated peptide in a biochemical mixture in the presence of ATP. The phosphorylated peptide is then bound by a specific anti-phospho antibody to which protein A-conjugated acceptor beads or provided with suitable second antibodies are coupled. The same mixture contains streptavidin-coupled donor beads which bind the biotin portion of the peptide. The binding to the peptide brings acceptor beads and donor beads in direct vicinity, starting a cascade of chemical reactions which generate a highly amplified, detectable luminescence signal: a photosensitizer in the donor bead is excited by laser excitation to convert oxygen in the surroundings into a singlet status. The singlet oxygen then diffuses to the acceptor bead where it excites a thioxene derivative which thus emits a chemiluminescence with a wavelength of 370 nm, which in turn excites further fluorophores in the acceptor bead to luminesce light with wavelengths of 520 to 620 nm. Since excitation of the fluorophores by singlet oxygen takes place only when donor bead and acceptor bead are in close vicinity, only then are detectable signals generated. […]"}, "[2]": {"conditions": "kinetic constant as enzyme substrate; cited from earlier work"}}}
{"molecule": "insulin: human insulin, peptide hormone, commercially available from Sigma under order number I-9266", "values": [{"measurement": "EC50", "setting": "[1]", "value": 10, "unit": "nM"}]}
{"molecule": "IRS-1: insulin receptor substrate 1 polypeptide used as kinase substrate (protein, listed as Homo sapiens) MASPPESDGFSDVRKVGYLRKPKSMHKRFFVLRAASEAGGPARLEYYENEKKWRHKSSAPKRSIPLESCFNINKRADSKNKHLVALYTRDEHFAIAADSEAEQDSWYQALLQLHNRAKGHHDGAAALGAGGGGGSCSGSSGLGEAGEDLSYGDVPPGPAFKEVWQVILKPKGLGQTKNLIGIYRLCLTSKTISFVKLNSEAAAVVLQLMNIRRCGHSENFFFIEVGRSAVTGPGEFWMQVDDSVVAQNMHETILEAMRAMSDEFRPRSKSQSSSNCSNPISVPLRRHHLNNPPPSQVGLTRRSRTESITATSPASMVGGKPGSFRVRASSDGEGTMSRPASVDGSPVSPSTNRTHAHRHRGSARLHPPLNHSRSIPMPASRCSPSATSPVSLSSSSTSGHGSTSDCLFPRRSSASVSGSPSDGGFISSDEYGSSPCDFRSSFRSVTPDSLGHTPPARGEEELSNYICMGGKGPSTLTAPNGHYILSRGGNGHRCTPGTGLGTSPALAGDEAASAADLDNRFRKRTHSAGTSPTITHQKTPSQSSVASIEEYTEMMPAYPPGGGSGGRLPGHRHSAFVPTRSYPEEGLEMHPLERRGGHHRPDSSTLHTDDGYMPMSPGVAPVPSGRKGSGDYMPMSPKSVSAPQQIINPIRRHPQRVDPNGYMMMSPSGGCSPDIGGGPSSSSSSSNAVPSGTSYGKLWTNGVGGHHSHVLPHPKPPVESSGGKLLPCTGDYMNMSPVGDSNTSSPSDCYYGPEDPQHKPVLSYYSLPRSFKHTQRPGEPEEGARHQHLRLSTSSGRLLYAATADDSSSSTSSDSLGGGYCGARLEPSLPHPHHQVLQPHLPRKVDTAAQTNSRLARPTRLSLGDPKASTLPRAREQQQQQQPLLHPPEPKSPGEYVNIEFGSDQSGYLSGPVAFHSSPSVRCPSQLQPAPREEETGTEEYMKMDLGPGRRAAWQESTGVEMGRLGPAPPGAASICRPTRAVPSSRGDYMTMQMSCPRQSYVDTSPAAPVSYADMRTGIAAEEVSLPRATMAAASSSSAASASPTGPQGAAELAAHSSLLGGPQGPGGMSAFTRVNLSPNRNQSAKVIRADPQGCRRRHSSETFSSTPSATRVGNTVPFGAGAAVGGGGGSSSSSEDVKRHSSASFENVWLRPGELGGAPKEPAKLCGAAGGLENGLNYIDLDLVKDFKQCPQECTPEPQPPPPPPPHQPLGSGESSSTRRSSEDLSAYASISFQKQPEDRQ", "values": [{"measurement": "Km", "setting": "[2]", "value": 19, "unit": "µM"}]}
